Results as given in paper PMC6385203, “Mutations in the palm domain disrupt modulation of acid-sensing ion channel 1a currents by neuropeptides” (Scientific Reports, 2019).
Residue numbers refer to the chain shown, from its start. Ends that are not written are not given here.

Assays:
[1] = target: T1, human ASIC1a F302A (human) (UniProt P78348)
T1 sequence: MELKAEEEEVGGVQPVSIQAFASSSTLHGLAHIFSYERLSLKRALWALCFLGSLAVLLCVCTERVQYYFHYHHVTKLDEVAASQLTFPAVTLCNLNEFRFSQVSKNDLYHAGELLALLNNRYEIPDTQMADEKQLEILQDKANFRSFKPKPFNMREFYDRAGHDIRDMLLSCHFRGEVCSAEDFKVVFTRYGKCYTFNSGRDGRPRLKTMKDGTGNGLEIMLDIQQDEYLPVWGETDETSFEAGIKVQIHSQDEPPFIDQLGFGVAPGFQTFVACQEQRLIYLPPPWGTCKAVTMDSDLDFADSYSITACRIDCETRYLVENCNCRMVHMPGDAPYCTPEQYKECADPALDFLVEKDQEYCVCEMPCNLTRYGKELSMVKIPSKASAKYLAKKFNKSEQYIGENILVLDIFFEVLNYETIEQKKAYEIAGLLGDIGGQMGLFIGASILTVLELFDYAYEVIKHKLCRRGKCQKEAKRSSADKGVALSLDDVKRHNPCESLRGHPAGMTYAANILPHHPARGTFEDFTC

[2] = target: T2, human acid-sensing ion channel 1a, wild type (human) (UniProt P78348)
T2 sequence: T1 sequence with A302F

[3] = target: T3, human ASIC1a N416C (human) (UniProt P78348)
T3 sequence: T1 sequence with A302F, N416C

[4] = target: T2, human acid-sensing ion channel 1a, wild type (human); remark: listed apart in the source

FRRF-NH2 [FRRFa (Phe-Arg-Arg-Phe-amide)]
EC50 of the FRRFa-mediated sustained current induction, two-electrode voltage-clamp [1]: 11 µM
koff from the time course of disappearance of the FRRFa-induced sustained current, WT in the direct comparison with N416C [2]: 0.029
EC50 of FRRFa for the I (sust)/I (peak) ratio increase at pH5, two-electrode voltage-clamp [3]: 6 μM
koff from the time course of disappearance of the FRRFa-induced sustained current after washout of 50 μM FRRFa [3]: 0.027 s⁻¹
EC50 of the induction of a sustained current (I (sust)/I (peak) at pH5) by FRRFa, two-electrode voltage-clamp, Xenopus oocytes [4]: 37 μM
association rate constant kon from the time course of appearance of the sustained current fraction with 50 μM FRRFa pre-applied at pH7.4, two-electrode voltage-clamp [4]: 162 s^−1 M^−1
rate of disappearance of the sustained current after a 50-s incubation with 50 μM FRRFa (rate of unbinding), two-electrode voltage-clamp [4]: 0.025 s⁻¹
